Assay results: patent publication US9422450B2, “Surface coated structures and methods” (ARCH BIOPHYSICS, INC., priority 2009, dated 2016)
Bridges are numbered along the chain shown (N, C = ends). Where no end group is shown, it is not given here.

Experiment: Corrosion resistance (Icorr, Ecorr, corrosion rate, Rp) of coated stainless steel
Format: physicochemical
Details: pilin conjugates on stainless steel

Q: What does the source list for “E-PAK: pilin peptide conjugated to an E-coil (negatively charged leucine zipper) peptide (DGLWKCTSDQDEQFIPKGCSR; disulfide 6-19; also: conjugated to E-coil peptide)”?
A: Corrosion Rate (Unmodified 0.0547): 0.1981 mpy; Ecorr (Unmodified 4.2): 87.2 mV; Rp (Unmodified 303.141): 121.722 Ohms/cm^2; Icorr (Unmodified 802): 1940 nAmps
